Reference: patent US11311622B2, “Development of masked therapeutic antibodies to limit off-target effects” (CITY OF HOPE, priority 2010, dated 2022)

Biological target: T1, MMP-9 (Homo sapiens, UniProt P14780)
T1 construct: purchased Calbiochem
Experiment: MMP-9 digestion of masked and cross-masked scFvs (SDS-PAGE)
Type: biochemical
Conditions: into the mask and scFv proteins

T1 sequence (P14780 107-707 limits assumed, species assumed): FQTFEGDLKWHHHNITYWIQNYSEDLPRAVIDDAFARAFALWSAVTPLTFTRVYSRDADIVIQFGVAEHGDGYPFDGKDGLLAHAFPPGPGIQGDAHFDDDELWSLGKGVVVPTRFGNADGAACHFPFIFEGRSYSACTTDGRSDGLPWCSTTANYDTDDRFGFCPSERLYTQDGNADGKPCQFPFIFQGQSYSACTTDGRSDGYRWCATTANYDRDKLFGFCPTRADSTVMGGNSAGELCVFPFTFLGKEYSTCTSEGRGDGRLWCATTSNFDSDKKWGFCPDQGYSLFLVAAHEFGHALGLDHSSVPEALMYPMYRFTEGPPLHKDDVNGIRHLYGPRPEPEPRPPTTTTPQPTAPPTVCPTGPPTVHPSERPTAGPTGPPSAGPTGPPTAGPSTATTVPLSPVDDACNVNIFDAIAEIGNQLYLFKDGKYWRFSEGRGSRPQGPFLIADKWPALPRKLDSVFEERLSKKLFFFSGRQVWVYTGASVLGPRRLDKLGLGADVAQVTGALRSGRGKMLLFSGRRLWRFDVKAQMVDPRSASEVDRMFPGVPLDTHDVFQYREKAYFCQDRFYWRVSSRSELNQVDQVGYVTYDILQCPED

- cleavage by recombinant active MMP-9: completely cleaved
B1: Masked 425: sEGFRdIII (S460P/G461N) mask, MMP-9 cleavable linker, scFv 425, FLAG and H6 tags; SEQ ID NO:6 (protein)
chain: MRPSGTAGAALLALLAALCPASRARKVCNGIGIGEFKDSLSINATNIKHFKNCTSISGDLHILPVAFRGDSFTHTPPLDPQELDILKTVKEITGFLLIAAWPENRTDLHAFENLEIIRGRTKMEGQFSLAVVSLNITSLGLRSLKEISDGDVIISGNKNLCYANTINWKKLFGTSGQKTKIISNRGENSCKATGQVCHALCSPEGCWGPEPKDCVSCRNVSRGRECCSRGGGSGGGSGGGSVPLSLYSGSTSGSGKSSEGSGSGAQGELVMTQSPAIMSASPGEKVTMTCSASSSVTYMYWYQQKPGSSPRLLIYDTSNLASGVPVRFSGSGSGTSYSLTISRMEAEDAATYYCQQWSSHIFTFGSGTKLEIKGGGGSGGGGSGGGGSQVQLVESGAELVKPGASVKLSCKASGYTFTSHWMHWVKQRAGQGLEWIGEFNPSNGRTNYNEKFKSKATLTVDKSSSTAYMQLSSLTSEDSAVYYCASRDYDYDGRYFDYWGQGTTLTVSDYKDDDDKTGHHHHHH
